Assays:
IL-1β = target: T1, IL-1β (UniProt P01584 117-269); experiment: Biacore, periplasmic extract
T1 construct: Antigen immobilised on the Biacore chip

IL-1beta = target: T2, IL-1beta (UniProt P01584 117-269); experiment: Biacore
T2 construct: also called IL-1β

Binder	fold difference in affinity vs original (IL-1β) [fold]	also measured
XPA23 light chain A51D (Fab, V domains shown) VH: EVQLLESGGGLVQPGGSLRLSCAASGFTFSKYFMFWVRQAPGKGLEWVSVISPSGGMTRYADSVKGRFTISRDNSKNTLYLQMNSLRAEDTAVYYCARVGYGGNSDYWGQGTLVTVSS VL: DIQMTQSPSSVSASVGDRLTIICRASQDINRWLAWYQQTPGNAPKLLIHSDTSLQSGVPSRFSGSGSGTDFTLTINSLQPEDFATYYCQQADSFPLTFGGGTKVEIK	0.13	–
XPA23 light chain A51L (Fab, V domains shown) VH: EVQLLESGGGLVQPGGSLRLSCAASGFTFSKYFMFWVRQAPGKGLEWVSVISPSGGMTRYADSVKGRFTISRDNSKNTLYLQMNSLRAEDTAVYYCARVGYGGNSDYWGQGTLVTVSS VL: DIQMTQSPSSVSASVGDRLTIICRASQDINRWLAWYQQTPGNAPKLLIHSLTSLQSGVPSRFSGSGSGTDFTLTINSLQPEDFATYYCQQADSFPLTFGGGTKVEIK	0.16	–
XPA23 Fab, heavy chain Y107W (Fab, V domains shown) VH: EVQLLESGGGLVQPGGSLRLSCAASGFTFSKYFMFWVRQAPGKGLEWVSVISPSGGMTRYADSVKGRFTISRDNSKNTLYLQMNSLRAEDTAVYYCARVGYGGNSDWWGQGTLVTVSS VL: DIQMTQSPSSVSASVGDRLTIICRASQDINRWLAWYQQTPGNAPKLLIHSATSLQSGVPSRFSGSGSGTDFTLTINSLQPEDFATYYCQQADSFPLTFGGGTKVEIK	–	fold difference in affinity vs parental (IL-1beta): 0.89 fold
XPA23 light chain A51H (Fab, V domains shown) VH: EVQLLESGGGLVQPGGSLRLSCAASGFTFSKYFMFWVRQAPGKGLEWVSVISPSGGMTRYADSVKGRFTISRDNSKNTLYLQMNSLRAEDTAVYYCARVGYGGNSDYWGQGTLVTVSS VL: DIQMTQSPSSVSASVGDRLTIICRASQDINRWLAWYQQTPGNAPKLLIHSHTSLQSGVPSRFSGSGSGTDFTLTINSLQPEDFATYYCQQADSFPLTFGGGTKVEIK	0.61	–
XPA23 light chain A51R (Fab, V domains shown) VH: EVQLLESGGGLVQPGGSLRLSCAASGFTFSKYFMFWVRQAPGKGLEWVSVISPSGGMTRYADSVKGRFTISRDNSKNTLYLQMNSLRAEDTAVYYCARVGYGGNSDYWGQGTLVTVSS VL: DIQMTQSPSSVSASVGDRLTIICRASQDINRWLAWYQQTPGNAPKLLIHSRTSLQSGVPSRFSGSGSGTDFTLTINSLQPEDFATYYCQQADSFPLTFGGGTKVEIK	0.18	–
XPA23 light chain A51F (Fab, V domains shown) VH: EVQLLESGGGLVQPGGSLRLSCAASGFTFSKYFMFWVRQAPGKGLEWVSVISPSGGMTRYADSVKGRFTISRDNSKNTLYLQMNSLRAEDTAVYYCARVGYGGNSDYWGQGTLVTVSS VL: DIQMTQSPSSVSASVGDRLTIICRASQDINRWLAWYQQTPGNAPKLLIHSFTSLQSGVPSRFSGSGSGTDFTLTINSLQPEDFATYYCQQADSFPLTFGGGTKVEIK	–	binding result (IL-1β): no binding
XPA23 light chain A51S (Fab, V domains shown) VH: EVQLLESGGGLVQPGGSLRLSCAASGFTFSKYFMFWVRQAPGKGLEWVSVISPSGGMTRYADSVKGRFTISRDNSKNTLYLQMNSLRAEDTAVYYCARVGYGGNSDYWGQGTLVTVSS VL: DIQMTQSPSSVSASVGDRLTIICRASQDINRWLAWYQQTPGNAPKLLIHSSTSLQSGVPSRFSGSGSGTDFTLTINSLQPEDFATYYCQQADSFPLTFGGGTKVEIK	0.95	–
XPA23 light chain A51Q (Fab, V domains shown) VH: EVQLLESGGGLVQPGGSLRLSCAASGFTFSKYFMFWVRQAPGKGLEWVSVISPSGGMTRYADSVKGRFTISRDNSKNTLYLQMNSLRAEDTAVYYCARVGYGGNSDYWGQGTLVTVSS VL: DIQMTQSPSSVSASVGDRLTIICRASQDINRWLAWYQQTPGNAPKLLIHSQTSLQSGVPSRFSGSGSGTDFTLTINSLQPEDFATYYCQQADSFPLTFGGGTKVEIK	0.24	–
XPA23 light chain A51P (Fab, V domains shown) VH: EVQLLESGGGLVQPGGSLRLSCAASGFTFSKYFMFWVRQAPGKGLEWVSVISPSGGMTRYADSVKGRFTISRDNSKNTLYLQMNSLRAEDTAVYYCARVGYGGNSDYWGQGTLVTVSS VL: DIQMTQSPSSVSASVGDRLTIICRASQDINRWLAWYQQTPGNAPKLLIHSPTSLQSGVPSRFSGSGSGTDFTLTINSLQPEDFATYYCQQADSFPLTFGGGTKVEIK	0.13	–
XPA23 light chain A51G (Fab, V domains shown) VH: EVQLLESGGGLVQPGGSLRLSCAASGFTFSKYFMFWVRQAPGKGLEWVSVISPSGGMTRYADSVKGRFTISRDNSKNTLYLQMNSLRAEDTAVYYCARVGYGGNSDYWGQGTLVTVSS VL: DIQMTQSPSSVSASVGDRLTIICRASQDINRWLAWYQQTPGNAPKLLIHSGTSLQSGVPSRFSGSGSGTDFTLTINSLQPEDFATYYCQQADSFPLTFGGGTKVEIK	3.84	–
XPA23 Fab, heavy chain Y107S (Fab, V domains shown) VH: EVQLLESGGGLVQPGGSLRLSCAASGFTFSKYFMFWVRQAPGKGLEWVSVISPSGGMTRYADSVKGRFTISRDNSKNTLYLQMNSLRAEDTAVYYCARVGYGGNSDSWGQGTLVTVSS VL: DIQMTQSPSSVSASVGDRLTIICRASQDINRWLAWYQQTPGNAPKLLIHSATSLQSGVPSRFSGSGSGTDFTLTINSLQPEDFATYYCQQADSFPLTFGGGTKVEIK	–	fold difference in affinity vs parental (IL-1beta): 0.89 fold
XPA23 Fab, heavy chain Y107Q (Fab, V domains shown) VH: EVQLLESGGGLVQPGGSLRLSCAASGFTFSKYFMFWVRQAPGKGLEWVSVISPSGGMTRYADSVKGRFTISRDNSKNTLYLQMNSLRAEDTAVYYCARVGYGGNSDQWGQGTLVTVSS VL: DIQMTQSPSSVSASVGDRLTIICRASQDINRWLAWYQQTPGNAPKLLIHSATSLQSGVPSRFSGSGSGTDFTLTINSLQPEDFATYYCQQADSFPLTFGGGTKVEIK	–	fold difference in affinity vs parental (IL-1beta): 0.87 fold
XPA23 light chain A51I (Fab, V domains shown) VH: EVQLLESGGGLVQPGGSLRLSCAASGFTFSKYFMFWVRQAPGKGLEWVSVISPSGGMTRYADSVKGRFTISRDNSKNTLYLQMNSLRAEDTAVYYCARVGYGGNSDYWGQGTLVTVSS VL: DIQMTQSPSSVSASVGDRLTIICRASQDINRWLAWYQQTPGNAPKLLIHSITSLQSGVPSRFSGSGSGTDFTLTINSLQPEDFATYYCQQADSFPLTFGGGTKVEIK	–	binding result (IL-1β): no binding
XPA23 light chain A51T (Fab, V domains shown) VH: EVQLLESGGGLVQPGGSLRLSCAASGFTFSKYFMFWVRQAPGKGLEWVSVISPSGGMTRYADSVKGRFTISRDNSKNTLYLQMNSLRAEDTAVYYCARVGYGGNSDYWGQGTLVTVSS VL: DIQMTQSPSSVSASVGDRLTIICRASQDINRWLAWYQQTPGNAPKLLIHSTTSLQSGVPSRFSGSGSGTDFTLTINSLQPEDFATYYCQQADSFPLTFGGGTKVEIK	0.76	–
XPA23 Fab, heavy chain Y107R (Fab, V domains shown) VH: EVQLLESGGGLVQPGGSLRLSCAASGFTFSKYFMFWVRQAPGKGLEWVSVISPSGGMTRYADSVKGRFTISRDNSKNTLYLQMNSLRAEDTAVYYCARVGYGGNSDRWGQGTLVTVSS VL: DIQMTQSPSSVSASVGDRLTIICRASQDINRWLAWYQQTPGNAPKLLIHSATSLQSGVPSRFSGSGSGTDFTLTINSLQPEDFATYYCQQADSFPLTFGGGTKVEIK	–	fold difference in affinity vs parental (IL-1beta): 0.85 fold
XPA23 light chain A51V (Fab, V domains shown) VH: EVQLLESGGGLVQPGGSLRLSCAASGFTFSKYFMFWVRQAPGKGLEWVSVISPSGGMTRYADSVKGRFTISRDNSKNTLYLQMNSLRAEDTAVYYCARVGYGGNSDYWGQGTLVTVSS VL: DIQMTQSPSSVSASVGDRLTIICRASQDINRWLAWYQQTPGNAPKLLIHSVTSLQSGVPSRFSGSGSGTDFTLTINSLQPEDFATYYCQQADSFPLTFGGGTKVEIK	0.31	–
XPA23 light chain A51E (Fab, V domains shown) VH: EVQLLESGGGLVQPGGSLRLSCAASGFTFSKYFMFWVRQAPGKGLEWVSVISPSGGMTRYADSVKGRFTISRDNSKNTLYLQMNSLRAEDTAVYYCARVGYGGNSDYWGQGTLVTVSS VL: DIQMTQSPSSVSASVGDRLTIICRASQDINRWLAWYQQTPGNAPKLLIHSETSLQSGVPSRFSGSGSGTDFTLTINSLQPEDFATYYCQQADSFPLTFGGGTKVEIK	0.29	–
XPA23 light chain A51W (Fab, V domains shown) VH: EVQLLESGGGLVQPGGSLRLSCAASGFTFSKYFMFWVRQAPGKGLEWVSVISPSGGMTRYADSVKGRFTISRDNSKNTLYLQMNSLRAEDTAVYYCARVGYGGNSDYWGQGTLVTVSS VL: DIQMTQSPSSVSASVGDRLTIICRASQDINRWLAWYQQTPGNAPKLLIHSWTSLQSGVPSRFSGSGSGTDFTLTINSLQPEDFATYYCQQADSFPLTFGGGTKVEIK	0.24	–
XPA23 light chain A51N (Fab, V domains shown) VH: EVQLLESGGGLVQPGGSLRLSCAASGFTFSKYFMFWVRQAPGKGLEWVSVISPSGGMTRYADSVKGRFTISRDNSKNTLYLQMNSLRAEDTAVYYCARVGYGGNSDYWGQGTLVTVSS VL: DIQMTQSPSSVSASVGDRLTIICRASQDINRWLAWYQQTPGNAPKLLIHSNTSLQSGVPSRFSGSGSGTDFTLTINSLQPEDFATYYCQQADSFPLTFGGGTKVEIK	0.3	–
XPA23 Fab, heavy chain Y107N (Fab, V domains shown) VH: EVQLLESGGGLVQPGGSLRLSCAASGFTFSKYFMFWVRQAPGKGLEWVSVISPSGGMTRYADSVKGRFTISRDNSKNTLYLQMNSLRAEDTAVYYCARVGYGGNSDNWGQGTLVTVSS VL: DIQMTQSPSSVSASVGDRLTIICRASQDINRWLAWYQQTPGNAPKLLIHSATSLQSGVPSRFSGSGSGTDFTLTINSLQPEDFATYYCQQADSFPLTFGGGTKVEIK	–	binding result (IL-1beta): no binding
XPA23 light chain A51Y (Fab, V domains shown) VH: EVQLLESGGGLVQPGGSLRLSCAASGFTFSKYFMFWVRQAPGKGLEWVSVISPSGGMTRYADSVKGRFTISRDNSKNTLYLQMNSLRAEDTAVYYCARVGYGGNSDYWGQGTLVTVSS VL: DIQMTQSPSSVSASVGDRLTIICRASQDINRWLAWYQQTPGNAPKLLIHSYTSLQSGVPSRFSGSGSGTDFTLTINSLQPEDFATYYCQQADSFPLTFGGGTKVEIK	0.45	–

Source: patent US20110118131A1 (published 2011)
